Two molecules from patent publication US20140087995A1 (published 2014) can be followed below.

Broadly, the IC50 is the point on the concentration scale where inhibition reaches its midpoint.

Numbered stars: 1 amine (or outer) side, 2 acyl side, 3 side chain; on linkers, the order of the positions; unused ones are H or OH. Bridge positions count the residues as written; N and C are the ends. Side chains are listed from the residue outwards. Ends that are not written are not given here. * marks the point of attachment. C20 diacid = O=C(O)CCCCCCCCCCCCCCCCCCC(=O)*; γGlu = O=C(O)[C@H](CCC(=O)[*:2])N[*:1]

Test [1] concerns the target T1, human calcitonin receptor (human, UniProt P30988 25-474).
T1 construct: whole, on cells; Assay used cell membranes, not intact cells; also called hCTR; hCT
T1 sequence (looked up): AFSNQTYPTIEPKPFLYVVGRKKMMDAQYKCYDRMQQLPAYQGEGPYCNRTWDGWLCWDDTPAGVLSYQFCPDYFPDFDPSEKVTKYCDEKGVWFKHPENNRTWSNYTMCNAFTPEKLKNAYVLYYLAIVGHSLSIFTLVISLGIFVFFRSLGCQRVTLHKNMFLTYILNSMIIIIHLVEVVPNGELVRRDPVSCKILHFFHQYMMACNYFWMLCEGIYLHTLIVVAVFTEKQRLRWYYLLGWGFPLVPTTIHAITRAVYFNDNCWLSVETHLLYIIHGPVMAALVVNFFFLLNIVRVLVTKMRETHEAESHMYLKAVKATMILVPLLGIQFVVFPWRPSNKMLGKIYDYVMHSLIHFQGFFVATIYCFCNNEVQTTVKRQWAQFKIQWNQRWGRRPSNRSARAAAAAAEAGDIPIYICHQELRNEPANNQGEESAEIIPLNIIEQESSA
Briefly: SPA competition with 125I-calcitonin on membranes of BHK cells with human calcitonin receptor (Assay VII). The gist of the method:
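BHK hCTR membranes 35 ng/μL + SPA beads 0.05 mg/well; buffer 50 mM Hepes pH 7.4, 1 mM CaCl2, 5 mM MgCl₂, 0.1% OA, 0.02% Tween20. 120 min, 25° C., shaking. Scintillation count; IC50 by one-site binding competition.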

Test [2] has as its target T2, human amylin receptor (amylin 3(a) receptor: human calcitonin receptor with RAMP-3) (human, UniProt P30988 25-474; O60896 24-148).
T2 construct: whole, on cells; Assay used cell membranes of the Amylin 3(a)/CRE-luc BHK cells, not intact cells; also called hAmylin-R; hAmylinR
T2 sequence (looked up) 1: T1 sequence (looked up)
T2 sequence (looked up) 2: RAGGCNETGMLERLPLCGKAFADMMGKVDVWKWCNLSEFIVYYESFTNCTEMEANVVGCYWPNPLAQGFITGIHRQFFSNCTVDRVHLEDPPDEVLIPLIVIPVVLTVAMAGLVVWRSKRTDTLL
Nature of the test: SPA competition with 125I-rat amylin on membranes of BHK cells with human calcitonin receptor and RAMP-3 (Assay V). The essentials: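 Cell membranes were prepared by homogenisation in Na-HEPES/EDTA buffer, pH 7.4, and stored at −80° C. They were then coupled to SPA beads at 35 ng/μL final and exposed to compounds in assay buffer containing CaCl2, MgCl₂, OA and Tween20. After 120 min at 25° C, plates were counted and IC₅₀ derived.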

The target of test [3] is T1, human calcitonin receptor. Briefly: ratio IC50 hCTR / IC50 hAmylin-R (reference: human amylin receptor), SPA competition assays. The gist of the method:
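IC₅₀ values were derived by one-site competition analysis of SPA counts. Cell membranes (35 ng/μL) with SPA beads were incubated with test compounds for 120 min at 25° C in Hepes buffer, pH 7.4, containing CaCl2, MgCl₂, OA and Tween20.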

B1: N^ε1-[(4S)-4-carboxy-4-(19-carboxynonadecanoylamino)butanoyl]-[Arg17,Pro21,Pro27,Arg34]-h-amylin (peptide)
peptide: K([γGlu-C20 diacid])CNTATCATQRLANFLRHSSPNFGAIPSSTNVGRNTY-NH2
modifications: disulfide 2-7; N-terminus assumed
SMILES: CC[C@H](C)[C@H](NC(=O)[C@H](C)NC(=O)CNC(=O)[C@H](Cc1ccccc1)NC(=O)[C@H](CC(N)=O)NC(=O)[C@@H]1CCCN1C(=O)[C@H](CO)NC(=O)[C@H](CO)NC(=O)[C@H](Cc1c[nH]cn1)NC(=O)[C@H](CCCNC(=N)N)NC(=O)[C@H](CC(C)C)NC(=O)[C@H](Cc1ccccc1)NC(=O)[C@H](CC(N)=O)NC(=O)[C@H](C)NC(=O)[C@H](CC(C)C)NC(=O)[C@H](CCCNC(=N)N)NC(=O)[C@H](CCC(N)=O)NC(=O)[C@@H](NC(=O)[C@H](C)NC(=O)[C@@H]1CSSC[C@H](NC(=O)[C@@H](N)CCCCNC(=O)CC[C@H](NC(=O)CCCCCCCCCCCCCCCCCCC(=O)O)C(=O)O)C(=O)N[C@@H](CC(N)=O)C(=O)N[C@@H]([C@@H](C)O)C(=O)N[C@@H](C)C(=O)N[C@@H]([C@@H](C)O)C(=O)N1)[C@@H](C)O)C(=O)N1CCC[C@H]1C(=O)N[C@@H](CO)C(=O)N[C@@H](CO)C(=O)N[C@H](C(=O)N[C@@H](CC(N)=O)C(=O)N[C@H](C(=O)NCC(=O)N[C@@H](CCCNC(=N)N)C(=O)N[C@@H](CC(N)=O)C(=O)N[C@H](C(=O)N[C@@H](Cc1ccc(O)cc1)C(N)=O)[C@@H](C)O)C(C)C)[C@@H](C)O
notes: also called compound 79
For B1, the 50% inhibitory concentration (IC50) in test [1] came out at 36.4 nM; in test [2] it was 0.79 nM. For the same molecule, the “Ratio hCT/hAmylin binding” value in test [3] was 46.1.

B2: N^ε1-[(4S)-4-carboxy-4-(19-carboxynonadecanoylamino)butanoyl]-[Arg17,Pro21,Pro27,His34]-h-amylin (peptide)
peptide: K([γGlu-C20 diacid])CNTATCATQRLANFLRHSSPNFGAIPSSTNVGHNTY-NH2
modifications: disulfide 2-7; N-terminus assumed
SMILES: CC[C@H](C)[C@H](NC(=O)[C@H](C)NC(=O)CNC(=O)[C@H](Cc1ccccc1)NC(=O)[C@H](CC(N)=O)NC(=O)[C@@H]1CCCN1C(=O)[C@H](CO)NC(=O)[C@H](CO)NC(=O)[C@H](Cc1c[nH]cn1)NC(=O)[C@H](CCCNC(=N)N)NC(=O)[C@H](CC(C)C)NC(=O)[C@H](Cc1ccccc1)NC(=O)[C@H](CC(N)=O)NC(=O)[C@H](C)NC(=O)[C@H](CC(C)C)NC(=O)[C@H](CCCNC(=N)N)NC(=O)[C@H](CCC(N)=O)NC(=O)[C@@H](NC(=O)[C@H](C)NC(=O)[C@@H]1CSSC[C@H](NC(=O)[C@@H](N)CCCCNC(=O)CC[C@H](NC(=O)CCCCCCCCCCCCCCCCCCC(=O)O)C(=O)O)C(=O)N[C@@H](CC(N)=O)C(=O)N[C@@H]([C@@H](C)O)C(=O)N[C@@H](C)C(=O)N[C@@H]([C@@H](C)O)C(=O)N1)[C@@H](C)O)C(=O)N1CCC[C@H]1C(=O)N[C@@H](CO)C(=O)N[C@@H](CO)C(=O)N[C@H](C(=O)N[C@@H](CC(N)=O)C(=O)N[C@H](C(=O)NCC(=O)N[C@@H](Cc1c[nH]cn1)C(=O)N[C@@H](CC(N)=O)C(=O)N[C@H](C(=O)N[C@@H](Cc1ccc(O)cc1)C(N)=O)[C@@H](C)O)C(C)C)[C@@H](C)O
notes: also called compound 77
For B2, the half-maximal inhibitory concentration (IC50) stood at 50.7 nM in test [1] and 0.428 nM in test [2]. Further, the “Ratio hCT/hAmylin binding” value in test [3] amounted to 118.
